Consider three substances from US20200024330A1.

Holding throughout (experiment): cell-based or functional assay
Assay [1] deals with HIV-1 92RW024 envelope glycoprotein (Env) on pseudovirus (HIV-1).
Assay [2] has as its target HIV-1 94UG103 envelope glycoprotein (Env) (HIV-1).
The target in assay [3] is HIV-1 94UG114 envelope glycoprotein (Env) on pseudovirus (HIV-1).
In assay [4] the target is HIV-1 98CN006 envelope glycoprotein (Env) on pseudovirus (HIV-1).
The target in assay [5] is HIV-1 Env of isolate MGRM-AE-001 (HIV-1).
Assay [6] concerns the target HIV-1 Env of isolate MGRM-D-004 (clade D) (HIV-1).
The target in assay [7] is HIV-1 Env of isolate MGRM-D-011 (clade D) (HIV-1).
Assay [8] deals with HIV-1 Env of isolate MGRM-D-018 (clade D) (HIV-1).
The target of assay [9] is HIV-1 Env of pseudovirus APV_17, clade B (HIV-1).
The target of assay [10] is HIV-1 Env of pseudovirus MGRM-Chronic-B-002, clade B (HIV-1).
For assay [11], the target named is HIV-1 Env of pseudovirus MGRM-Chronic-B-008, clade B (HIV-1).
Assay [12] addresses HIV-1 Env of pseudovirus QH0692.42 (Acute), clade B (HIV-1).
Assay [13] deals with HIV-1 Env of pseudovirus TRO.11 (Acute), clade B (HIV-1).
Assay [14] deals with HIV-1 Env of pseudovirus VLGCB3, clade B (HIV-1).
The target of assay [15] is HIV-1 MGRM-A-003 envelope glycoprotein (Env) (HIV-1).
The target in assay [16] is HIV-1 MGRM-A-010 envelope glycoprotein (Env) (HIV-1).
For assay [17], the target named is HIV-1 MGRM-A-011 envelope glycoprotein (Env) (HIV-1).
Assay [18] concerns the target HIV-1 MGRM-C-006 Env (HIV-1).
The target of assay [19] is HIV-1 MGRM-F1-006 Env (pseudovirus) (HIV-1).
Assay [20] concerns the target HIV-1 MGRM-F1-020 Env (pseudovirus) (HIV-1).
Assay [21] addresses HIV-1 NL43 envelope protein (Env) on pseudovirus (HIV-1).

Chain of 1443_C16 (PG16) (TCN-116) (antibody) (VH): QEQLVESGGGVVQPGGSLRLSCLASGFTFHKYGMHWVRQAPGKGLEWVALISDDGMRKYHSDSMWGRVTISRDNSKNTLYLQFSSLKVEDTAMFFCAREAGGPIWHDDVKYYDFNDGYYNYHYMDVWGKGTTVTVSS
Chain of 1443_C16 (PG16) (TCN-116) (antibody) (VL): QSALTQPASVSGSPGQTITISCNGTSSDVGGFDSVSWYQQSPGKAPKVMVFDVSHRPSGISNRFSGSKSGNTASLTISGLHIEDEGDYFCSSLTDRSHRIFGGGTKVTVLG

Turning to 1443_C16 (PG16) (TCN-116) (antibody), the IC50 (µg/ml), pseudovirus neutralization is 0.08 µg/mL in assay [1]; 0.04 µg/mL in assay [2]; > 50 µg/mL in [3]; > 50 µg/mL in [4]; 4.33 µg/mL in [5]; 0.01 µg/mL in [6]. Besides, the IC50 (µg/ml), pseudovirus neutralization in assay [7] was 0.01 µg/mL; in [8], 0.004 µg/mL; in assay [9], 24.8 µg/mL; in [10], 3.06 µg/mL; in assay [11], 0.73 µg/mL; in assay [12] it was > 50 µg/mL. In addition, the IC50 (µg/ml), pseudovirus neutralization in assay [13] came out at 0.22 µg/mL; in assay [14], 0.4 µg/mL; in assay [15], 2.65 µg/mL; in assay [16] it was 0.004 µg/mL; in assay [17], 0.24 µg/mL; in assay [19], 0.27 µg/mL. The same substance registered an IC50 (µg/ml), pseudovirus neutralization in assay [20] of 4.35 µg/mL. This substance came in with an IC50 in assay [18] of 2.62 µg/mL. The neutralization IC50 in [21] is < 0.0025 µg/mL.
As for 1495_C14 (PGC14) (antibody), the IC50 (µg/ml), pseudovirus neutralization in [1], in assay [2], in [3], in assay [4], in [5] and in assay [6] was > 50 µg/mL each time. Besides, the IC50 (µg/ml), pseudovirus neutralization in [7], in assay [8], in assay [9], in [10], in [11] and in assay [12] was > 50 µg/mL in each case. Besides, the IC50 (µg/ml), pseudovirus neutralization in assay [13] is > 50 µg/mL; in assay [14] it was 21 µg/mL; in [15], > 50 µg/mL; in [16], > 50 µg/mL; in assay [17], > 50 µg/mL; in assay [19] it was > 50 µg/mL. The IC50 (µg/ml), pseudovirus neutralization in [20] was > 50 µg/mL. The IC50 in [18] is > 50 µg/mL. The neutralization IC50 in assay [21] worked out at 0.373 µg/mL.
Take b12 (antibody): the IC50 (µg/ml), pseudovirus neutralization in assay [1] was > 50 µg/mL; in [2], 6.92 µg/mL; in assay [3], > 50 µg/mL; in assay [4] it was > 50 µg/mL; in [5] it was 25.9 µg/mL; in [6] it was > 50 µg/mL. Further, the IC50 (µg/ml), pseudovirus neutralization in assay [7] is 7.75 µg/mL; in assay [8], 1.39 µg/mL; in assay [9], > 50 µg/mL; in [10] it was 0.86 µg/mL; in assay [11] it was 2.82 µg/mL; in assay [12], 0.73 µg/mL. Besides, the IC50 (µg/ml), pseudovirus neutralization in assay [13] was > 50 µg/mL; in assay [14], 0.15 µg/mL; in assay [15] it was > 50 µg/mL; in assay [16], > 50 µg/mL; in assay [17], 4.01 µg/mL; in assay [19] it was > 50 µg/mL. The IC50 (µg/ml), pseudovirus neutralization in assay [20] is > 50 µg/mL. Further, in assay [18], the IC50 was > 50 µg/mL. The substance further displayed a neutralization IC50 in assay [21] of 0.06 µg/mL.

Usually IC50 stands for the point on the concentration scale where inhibition reaches its midpoint. Low readings indicate higher potency, high ones lower potency.
